# In patent US20190170753A1 (ICAHN SCHOOL OF MEDICINE AT MOUNT SINAI, published 2019):
# Where no end group is shown, it is not given here.
# T1: C113T109N biotin labeled HCV core peptide (hepatitis C virus, also: biotin labeled, position not given here)
# T1 construct: also called C113T110N
# T1 peptide: RGSRPSWGPND
# T2: WT1STHV biotin labeled HCV core peptide (hepatitis C virus, biotin labeled (position not given))
# T2 peptide: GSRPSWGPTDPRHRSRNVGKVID
# T3: Mut1T110N biotin labeled HCV core peptide (hepatitis C virus, biotin labeled (position not given))
# T3 peptide: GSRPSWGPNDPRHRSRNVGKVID
# T4: 92-133 biotin labeled HCV core peptide (hepatitis C virus, UniProt Q9WMX2 92-133, chain 1: biotin label (bt-pep). Its position and any spacer are not visible in the passages shown.)
# T4 construct: Only the label 92-133 is printed
# T4 peptide: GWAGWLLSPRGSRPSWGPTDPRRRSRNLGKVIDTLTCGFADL
# T5: C113WT biotin labeled HCV core peptide (hepatitis C virus, also: biotin labeled, position not given here)
# T5 peptide: RGSRPSWGPTD
# T6: HCV core peptide 52 (hepatitis C virus, HELM PEPTIDE1{[O=C1N[C@H]2[C@H](CS[C@H]2CCCCC(=O)[*:2])N1].S.G.S.G.S.R.P.S.W.G.P.T.D.P.R.R.R.S.R.[am]}$$$$V2.0; SMILES …)
# T6 peptide: SGSGSRPSWGPTDPRRRSR
# T7: HCV core peptide 48 (hepatitis C virus, HELM PEPTIDE1{[O=C1N[C@H]2[C@H](CS[C@H]2CCCCC(=O)[*:2])N1].S.G.S.G.G.W.L.L.S.P.R.G.S.R.P.S.W.G.P.[am]}$$$$V2.0; SMILES …)
# T7 construct: also called aa 95-109
# T7 peptide: SGSGGWLLSPRGSRPSWGP
# How the values were obtained:
# [1] = target: T1, C113T109N biotin labeled HCV core …; experiment: capture EIA; Ab 31.25 ng/mL; bt-peptide 500 ng/mL
# Description: (§1) Assay wells were coated with sheep anti-mouse IgG Fc specific antibody and incubated overnight. The coating solution was then removed; the wells blocked using BSA/tween in PBS and then washed with dH2O. […] Next, biotin labeled peptides (diluted to 500 ng/mL in block) were added, the plates incubated for 10 minutes while shaking at 700 rpm and then washed. Peroxidase conjugated streptavidin (diluted to 200 ng/mL in block) was then added to all assay wells, incubated for 20 minutes while shaking at 700 rpm and then washed. Finally, color was developed using OPD and signal quenched using 1N H₂SO₄. Signal was read at 492 nm.
# [2] = target: T2, WT1STHV biotin labeled HCV core peptide; experiment: capture EIA; Ab 31.25 ng/mL; bt-peptide 500 ng/mL
# Description: as §1
# [3] = target: T1, C113T109N biotin labeled HCV core …; experiment: capture EIA; Ab 500 ng/mL; bt-peptide 500 ng/mL
# Description: as §1
# [4] = target: T3, Mut1T110N biotin labeled HCV core …; experiment: capture EIA; Ab 500 ng/mL; bt-peptide 500 ng/mL
# Description: as §1
# [5] = target: T4, 92-133 biotin labeled HCV core peptide; experiment: capture EIA; Ab 500 ng/mL; bt-peptide 500 ng/mL
# Description: as §1
# [6] = target: T2, WT1STHV biotin labeled HCV core peptide; experiment: capture EIA; Ab 500 ng/mL; bt-peptide 500 ng/mL
# Description: as §1
# [7] = target: T5, C113WT biotin labeled HCV core peptide; experiment: capture EIA; Ab 500 ng/mL; bt-peptide 500 ng/mL
# Description: as §1
# [8] = target: Mut6T110S biotin labeled HCV core peptide (hepatitis C virus, biotin labeled (position not given)); experiment: capture EIA; Ab 500 ng/mL; bt-peptide 500 ng/mL
# HCV core peptide 52 = target: T6, HCV core peptide 52; experiment: peptide EIA, 2 ug/mL IgG;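 also: purified mouse IgG binding to individually well-coated synthetic peptides, detected with peroxidase anti-mouse IgG Fc and o-phenylenediamine, IgG incubated at least 1 h at room temperature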
# Description: (§2) The coated plates were kept dry in a sealed foil pouch and stored at <10 degrees C. until ready for use. A peptide coated plate for each test antibody was blocked using 3% BSA in PBS with 0.5% Tween 20. The blocked plates were washed with distilled water and a 2 ug/mL solution of purified IgG from each test sample diluted in BSA block solution was added to each peptide coated well of the blocked plate and allowed to incubate at room temperature for at least one hour. Following incubation the plates were washed with distilled water. A 200 ng/mL solution of peroxidase labeled F(ab′)2 fragment goat anti-mouse IgG Fc fragment specific (Jackson Immunoresearch) in BSA block solution was added to all wells and incubated at room temperature for 30 minutes. The plates were washed with distilled water and o-phenylenediamine substrate was used as the chromagen to generate signal. Plates were read at 492 nm and the results were analyzed.
# HCV core peptide 29 = target: T8, HCV core peptide 29 (hepatitis C virus, N-terminal biotin; C-terminal amide); experiment: peptide EIA, 2 ug/mL IgG;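 also: purified mouse IgG binding to individually well-coated synthetic peptides, detected with peroxidase anti-mouse IgG Fc and o-phenylenediamine, IgG incubated at least 1 h at room temperature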
# T8 construct: range 57-71
# Description: as §2
# HCV core peptide 33 = target: T9, HCV core peptide 33 (hepatitis C virus, N-terminal biotin; C-terminal amide); experiment: peptide EIA, 2 ug/mL IgG;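 also: purified mouse IgG binding to individually well-coated synthetic peptides, detected with peroxidase anti-mouse IgG Fc and o-phenylenediamine, IgG incubated at least 1 h at room temperature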
# T9 construct: range 65-79
# Description: as §2
# HCV core peptide 68 = target: T10, HCV core peptide 68 (hepatitis C virus, N-terminal biotin; C-terminal amide); experiment: peptide EIA, 2 ug/mL IgG;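 also: purified mouse IgG binding to individually well-coated synthetic peptides, detected with peroxidase anti-mouse IgG Fc and o-phenylenediamine, IgG incubated at least 1 h at room temperature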
# T10 construct: range 135-149
# Description: as §2
# HCV core peptide 65 = HCV core peptide 65 (hepatitis C virus, N-terminal biotin; C-terminal amide); experiment: peptide EIA, 2 ug/mL IgG
# Description: as §2
# HCV core peptide 31 = target: T11, HCV core peptide 31 (hepatitis C virus, N-terminal biotin; C-terminal amide); experiment: peptide EIA, 2 ug/mL IgG
# T11 construct: range 61-75
# Description: as §2
# HCV core peptide 20 = target: T12, HCV core peptide 20 (hepatitis C virus, N-terminal biotin; C-terminal amide); experiment: peptide EIA, 2 ug/mL IgG
# T12 construct: range 39-53
# Description: as §2
# HCV core peptide 48 = target: T7, HCV core peptide 48; experiment: peptide EIA, 2 ug/mL IgG
# Description: as §2
# HCV core peptide 66 = HCV core peptide 66 (hepatitis C virus, N-terminal biotin; C-terminal amide); experiment: peptide EIA, 2 ug/mL IgG
# Description: as §2
# HCV core peptide 23 = target: T13, HCV core peptide 23 (hepatitis C virus, N-terminal biotin; C-terminal amide); experiment: peptide EIA, 2 ug/mL IgG
# T13 construct: range 45-59
# Description: as §2
# HCV core peptide 8 = target: T14, HCV core peptide 8 (hepatitis C virus, N-terminal biotin; C-terminal amide); experiment: peptide EIA, 2 ug/mL IgG
# T14 construct: range 15-29
# Description: as §2
# HCV core peptide 39 = target: T15, HCV core peptide 39 (hepatitis C virus, N-terminal biotin; C-terminal amide); experiment: peptide EIA, 2 ug/mL IgG
# T15 construct: range 77-91
# Description: as §2
# HCV core peptide 21 = target: T16, HCV core peptide 21 (hepatitis C virus, N-terminal biotin; C-terminal amide); experiment: peptide EIA, 2 ug/mL IgG
# T16 construct: range 41-55
# Description: as §2
# HCV core peptide 35 = target: T17, HCV core peptide 35 (hepatitis C virus, N-terminal biotin; C-terminal amide); experiment: peptide EIA, 2 ug/mL IgG
# T17 construct: range 69-83
# Description: as §2
# HCV core peptide 4 = target: T18, HCV core peptide 4 (hepatitis C virus, N-terminal biotin; C-terminal amide); experiment: peptide EIA, 2 ug/mL IgG
# T18 construct: range 7-21
# Description: as §2
# HCV core peptide 76 = HCV core peptide 76 (hepatitis C virus, N-terminal biotin; C-terminal amide); experiment: peptide EIA, 2 ug/mL IgG
# Description: as §2
# HCV core peptide 45 = HCV core peptide 45 (hepatitis C virus, N-terminal biotin; C-terminal amide); experiment: peptide EIA, 2 ug/mL IgG
# Description: as §2
# HCV core peptide 30 = target: T19, HCV core peptide 30 (hepatitis C virus, N-terminal biotin; C-terminal amide); experiment: peptide EIA, 2 ug/mL IgG
# T19 construct: range 59-73
# Description: as §2
# HCV core peptide 12 = target: T20, HCV core peptide 12 (hepatitis C virus, N-terminal biotin; C-terminal amide); experiment: peptide EIA, 2 ug/mL IgG
# T20 construct: range 23-37
# Description: as §2
# HCV core peptide 80 = HCV core peptide 80 (hepatitis C virus, N-terminal biotin; C-terminal amide); experiment: peptide EIA, 2 ug/mL IgG
# Description: as §2
# HCV core peptide 71 = HCV core peptide 71 (hepatitis C virus, N-terminal biotin; C-terminal amide); experiment: peptide EIA, 2 ug/mL IgG
# Description: as §2
binder,measurement,setting,value
"Neo4 mouse monoclonal antibody (antibody, V domains shown, Mouse hybridoma antibody, isotype IgG1, purified with Protein G; also called HCV Neo4) VH: QIQLKESGPAVIKPSQSLSLTCIVSGFSITSSVYCWQWIRQPPGKGLEWMGRICYDGSVDYSPSITSRGTISRDTSLNKVFFQLSSVTNEDTAMYYCSRENHIDYYDTTYPSFDVWGAGTTVTVSS VL: DIVLTQSPASLIVSLGQRATISCRASKSVNEYGYTYMHWYQQKPGLPPKLLIYLASNLDSGVPARFSGSGSGTDFTLNIHPVEEEDAATYYCQHSRELPYTFGGGTKLEIKR",signal at 492 nm,[1],0.0815 A492
same,signal at 492 nm,[2],1.67 A492
same,signal at 492 nm,[3],0.0803 A492
same,signal at 492 nm,[4],0.065 A492
same,signal at 492 nm,[5],1.48 A492
same,signal at 492 nm,[6],1.91 A492
same,signal at 492 nm,[7],0.0561 A492
same,signal at 492 nm,[8],1.17 A492
same,OD (A492 nm),HCV core peptide 52,0.93 OD
same,OD (A492 nm),HCV core peptide 29,0.04 OD
same,OD (A492 nm),HCV core peptide 33,0.05 OD
same,OD (A492 nm),HCV core peptide 68,0.04 OD
same,OD (A492 nm),HCV core peptide 65,0.04 OD
same,OD (A492 nm),HCV core peptide 31,0.05 OD
same,OD (A492 nm),HCV core peptide 20,0.05 OD
same,OD (A492 nm),HCV core peptide 48,0.04 OD
same,OD (A492 nm),HCV core peptide 66,0.05 OD
same,OD (A492 nm),HCV core peptide 23,0.05 OD
same,OD (A492 nm),HCV core peptide 8,0.06 OD
same,OD (A492 nm),HCV core peptide 39,0.05 OD
same,OD (A492 nm),HCV core peptide 21,0.05 OD
same,OD (A492 nm),HCV core peptide 35,0.04 OD
same,OD (A492 nm),HCV core peptide 4,0.06 OD
same,OD (A492 nm),HCV core peptide 76,0.05 OD
same,OD (A492 nm),HCV core peptide 45,0.04 OD
same,OD (A492 nm),HCV core peptide 30,0.05 OD
same,OD (A492 nm),HCV core peptide 12,0.07 OD
same,OD (A492 nm),HCV core peptide 80,0.05 OD
same,OD (A492 nm),HCV core peptide 71,0.05 OD
